# Assay results published in patent US7294701B2, “Antibody fragment capable of modulating multidrug resistance and compositions and kits and methods using same” (Technion Research & Development Foundation Ltd., priority 2003, dated 2007).
# Values joined by “and” are separate entries in the source; they are usually repeats but may differ in a detail not shown here. Equal values may be shown once. “Also recorded” adds a separate entry of the source. Read-outs that look alike come from different tables or passages of the source.
# B1: A2 scFv: novel anti-Pgp single-chain Fv, about 30 kDa, encoded by SEQ ID NO:2, directed to first extracellular loop peptide SEQ ID NO:1 (protein)
# chain: QVQLQQSGPDLVKPGASVKISCKASGYSFTGYYMHWVKQSHGKSLEWIGRANPNNGGTSYNQKFKGKAILTVDKSSSTAYMELRSLTSEDSAVYYCARWDGAYWGQGTLVTVSSGGGGSGGGGSGGGGSDVVMTQTPLSLPVSLGDQASISCRSSQSIVHSNGNTYLEWYLQKPGQSPKLLIYKVSNRFSGVPDRFSGSGSGTDFTLKISRVEAEDLGVYYCFQGSHVPFTFGSGTKLELK
# modifications: A2 single chain Fv coding sequence
# How the values were obtained:
# [1] = target: T1, Pgp drug-efflux activity in 2780^ADR cells (Homo sapiens, UniProt P08183); test: calcein-AM chromophore efflux assay; conditions: antibody given before calcein, FIGS. 3c, 3e
# [2] = target: T2, biotinylated Pgp-derived peptide (SEQ ID NO:1) (Homo sapiens, UniProt P08183); test: saturation ELISA; conditions: interpolated, FIG. 1c
# T2 construct: made in house; host or cells: chemical synthesis
# Text: The binding properties of A2 scFv were further characterized using a saturation ELISA. In this experiment, a biotinylated Pgp-derived peptide (SEQ ID NO:1) was bound to plates precoated with BSA-biotin and exposed to increasing amounts of A2 scFv.
# streptavidin = streptavidin (Streptomyces avidinii, UniProt P22629); test: ELISA binding specificity, streptavidin; conditions: FIG. 1b
# Description: (§1) The binding specificity of the purified A2 scFv antibody was determined via ELISA. A biotinylated target peptide having the amino acid sequence of SEQ ID NO:1, or a non-target MRP1 control peptide (provided at 10 μg in 100 μl) were each immobilized onto a flexible microtiter plate using BSA-biotin-streptavidin. A purified A2 scFv was then added, at different concentrations, to the peptide-coated plate and was detected with an anti Myc tag-HRP conjugate antibody.
# [3] = test system: drug-sensitive carcinoma cells KB3-1; test: immunofluorescence flow-cytometer analysis of cell binding; parameters: species or system human; conditions: KB3-1, A2 scFv 50 μg/ml, FIG. 2c
# Description: (§2) In another series of experiments, the reactivity and specificity of A2 scFv to Pgp, expressed on the surface of MDR cells, was evaluated. […] The MDR cell lines and the drug-sensitive cell lines used in these experiments are described in Table 2 below.
# (§3) Cells growing on six well tissue culture plates were washed twice followed by incubation with soluble purified A2 scFv (50 μg/ml) for 90 minutes on ice. Detection was with anti-Myc (30 μg/ml) and FITC-labeled anti-mouse IgG (1:1000, Jackson). Detection of fluorescent cells was performed on a FACScalibur (Becton Dickinson).
# [4] = test system: drug-sensitive ovarian carcinoma cells 2780; test: as above; parameters: species or system human; conditions: 2780, A2 scFv 50 μg/ml, FIG. 2a
# Description: as §2, §3
# [5] = test system: non-target MRP1 control peptide; test: ELISA binding specificity, non-target control peptide; conditions: FIG. 1b
# Description: as §1
# KB3-1 cells = test: calcein-AM chromophore efflux assay, drug-sensitive cells; assay type: cell-based, human; conditions: KB3-1, fluorometer, FIG. 4d
# [6] = test system: drug-sensitive cells 2780; test: immuno-histochemical staining; assay type: binding, human; conditions: 2780, A2 scFv 0.2 mg/ml, FIG. 2f
# Description: (§4) Drug sensitive cells and MDR cells were grown to 50% confluence on glass slides, pre-coated with 4% gelatin in PBS, fixed with 2% formaldehyde in PBS, blocked with 1% BSA in PBS at room temperature, then followed by 90 min incubation with A2 scFv (0.2 mg/ml) in PBS containing 1% BSA (room temperature). The slides were then covered with HRP-labeled anti-Myc-antibody (1:500, in PBS containing 1% BSA) for 1 hr, washes with water, then covered with peroxidase substrate, (AEC) for 2-3 min. Slides were then washed with water and counter staining was performed with hematoxylin.
# [7] = test system: drug-sensitive cells KB3-1; test: immuno-histochemical staining; assay type: binding, human; conditions: drug-sensitive KB3-1, A2 scFv 0.2 mg/ml, FIG. 2h
# Description: as §4
# [8] = target: T3, Pgp drug-efflux activity in EMT^R1 cells (Cricetulus griseus, UniProt P21448); test: calcein-AM chromophore efflux assay; assay type: cell-based, rodent (CHO); conditions: EMT^R1, fluorometer, FIG. 4a
# T3 construct: a rodent (CHO) MDR cell line EMT^R1; endogenous in cells; host or cells: EMT^R1 (CHO, parental line A8)
# [9] = target: T1, Pgp drug-efflux activity in 2780^ADR cells
# [10] = target: T4, Pgp on MDR carcinoma cells KBV-1 (Homo sapiens, UniProt P08183); test: immuno-histochemical staining; assay type: binding; conditions: MDR KBV-1, A2 scFv 0.2 mg/ml, FIG. 2g
# T4 construct: MDR and Pgp-overexpressing human carcinoma cells KBV-1; endogenous in cells; host or cells: KBV-1 (KB-V1; drug-selected human epidermoid carcinoma, derived from KB3-1)
# Description: as §4
# [11] = target: T5, Pgp on MDR ovarian carcinoma cells 2780^ADR (Homo sapiens, UniProt P08183); test: immuno-histochemical staining; assay type: binding; conditions: A2 scFv 0.2 mg/ml, FIG. 2e
# T5 construct: MDR and Pgp-overexpressing ovarian carcinoma cells 2780^ADR; endogenous in cells; host or cells: 2780^ADR (drug-selected human ovarian carcinoma)
# Description: as §4
# [12] = target: T6, Pgp-derived peptide (SEQ ID NO:1) (Homo sapiens, UniProt P08183); test: competition binding radio-immunoassay with [125I]-labeled A2 scFv; conditions: competition with [125I]-labeled A2 scFv, interpolated, FIG. 1d; read-out: concentration of cold competitor for 50% binding inhibition (affinity constant)
# T6 construct: made in house; host or cells: chemical synthesis
# Description: In a competition binding radio-immunoassay the purified A2 scFv (100 μg) was first labeled with [^125I] using the Bolton-Hunter reagent. The [^125I]-labeled A2 scFv antibody was added as a tracer (3-5×10^5 cpm/well) to a flexible microtiter plate, which had been pre-coated with BSA-biotin and the target peptide (SEQ ID NO:1), as described above. A non-labeled (i.e., cold) A2 scFv was then added, as a competitor, to the pre-coated plates at increasing concentrations. Plates were incubated for 1 hr at room temperature, then washed and analyzed by gamma counter.
# A8 cells = test: calcein-AM chromophore efflux assay, drug-sensitive cells; assay type: cell-based, rodent (CHO); conditions: A8, fluorometer, FIG. 4e
# 2780 cells = test: as above; assay type: cell-based, human; conditions: 2780, fluorometer, FIG. 4c
# 2780^ADR cells = test: viability of doxorubicin-exposed cells by [3H]-leucine incorporation; assay type: cell-based, human; conditions: A2 scFv 0.2 mg/ml before 5-10 μM doxorubicin
# Description: Cells were pre-incubated with A2 scFv at a concentration of 0.2 mg/ml, then exposed to 5-10 μM of doxirubicin and then analyzed for [^3H]Leucine content.
# [13] = target: T7, Pgp on MDR epidermoid carcinoma cells KBV-1 (Homo sapiens, UniProt P08183); test: immunofluorescence flow-cytometer analysis of cell binding; conditions: KBV-1, A2 scFv 50 μg/ml, FIG. 2d
# T7 construct: MDR and Pgp-overexpressing human carcinoma cells KBV-1; endogenous in cells; host or cells: KBV-1 (KB-V1; drug-selected human epidermoid carcinoma, derived from KB3-1)
# Description: as §2, §3
# [14] = target: T5, Pgp on MDR ovarian carcinoma cells 2780^ADR; test: as above; conditions: A2 scFv 50 μg/ml, FIG. 2b
# Description: as §2, §3
# T1 sequence (P08183 whole entry): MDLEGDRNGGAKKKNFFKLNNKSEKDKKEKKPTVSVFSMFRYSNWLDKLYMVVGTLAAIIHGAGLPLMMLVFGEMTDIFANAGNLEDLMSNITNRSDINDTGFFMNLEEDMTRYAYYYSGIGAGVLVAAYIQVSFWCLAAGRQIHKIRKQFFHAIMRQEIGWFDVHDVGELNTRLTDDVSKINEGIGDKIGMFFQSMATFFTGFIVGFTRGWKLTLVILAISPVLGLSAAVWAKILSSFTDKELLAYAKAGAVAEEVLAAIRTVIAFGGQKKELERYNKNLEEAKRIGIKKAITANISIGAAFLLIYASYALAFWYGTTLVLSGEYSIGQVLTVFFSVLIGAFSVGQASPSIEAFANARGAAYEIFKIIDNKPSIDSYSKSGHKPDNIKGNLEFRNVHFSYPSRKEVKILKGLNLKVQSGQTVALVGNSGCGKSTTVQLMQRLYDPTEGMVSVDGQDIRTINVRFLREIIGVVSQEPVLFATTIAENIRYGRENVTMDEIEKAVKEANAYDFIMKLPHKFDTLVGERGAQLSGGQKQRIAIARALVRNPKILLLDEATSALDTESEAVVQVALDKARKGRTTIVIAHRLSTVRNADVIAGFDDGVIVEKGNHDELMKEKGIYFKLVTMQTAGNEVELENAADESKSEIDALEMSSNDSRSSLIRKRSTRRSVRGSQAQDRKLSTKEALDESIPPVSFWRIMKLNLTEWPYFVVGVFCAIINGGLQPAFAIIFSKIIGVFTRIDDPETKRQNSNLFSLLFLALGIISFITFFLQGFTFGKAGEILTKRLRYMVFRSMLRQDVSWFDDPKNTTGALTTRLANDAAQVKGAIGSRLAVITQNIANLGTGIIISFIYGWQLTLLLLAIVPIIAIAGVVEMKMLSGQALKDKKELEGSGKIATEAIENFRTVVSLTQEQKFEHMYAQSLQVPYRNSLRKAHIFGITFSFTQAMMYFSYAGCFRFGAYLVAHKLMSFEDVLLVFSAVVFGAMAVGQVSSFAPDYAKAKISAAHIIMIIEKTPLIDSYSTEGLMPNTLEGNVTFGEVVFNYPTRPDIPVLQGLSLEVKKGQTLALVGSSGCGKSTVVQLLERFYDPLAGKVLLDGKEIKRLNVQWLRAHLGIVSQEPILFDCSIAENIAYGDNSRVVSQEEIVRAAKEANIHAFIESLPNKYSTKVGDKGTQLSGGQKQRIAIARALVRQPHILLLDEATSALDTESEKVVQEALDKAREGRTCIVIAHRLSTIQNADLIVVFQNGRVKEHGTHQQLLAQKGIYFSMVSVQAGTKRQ
# T5 sequence (P08183 whole entry): as above
# T3 sequence (P21448 whole entry): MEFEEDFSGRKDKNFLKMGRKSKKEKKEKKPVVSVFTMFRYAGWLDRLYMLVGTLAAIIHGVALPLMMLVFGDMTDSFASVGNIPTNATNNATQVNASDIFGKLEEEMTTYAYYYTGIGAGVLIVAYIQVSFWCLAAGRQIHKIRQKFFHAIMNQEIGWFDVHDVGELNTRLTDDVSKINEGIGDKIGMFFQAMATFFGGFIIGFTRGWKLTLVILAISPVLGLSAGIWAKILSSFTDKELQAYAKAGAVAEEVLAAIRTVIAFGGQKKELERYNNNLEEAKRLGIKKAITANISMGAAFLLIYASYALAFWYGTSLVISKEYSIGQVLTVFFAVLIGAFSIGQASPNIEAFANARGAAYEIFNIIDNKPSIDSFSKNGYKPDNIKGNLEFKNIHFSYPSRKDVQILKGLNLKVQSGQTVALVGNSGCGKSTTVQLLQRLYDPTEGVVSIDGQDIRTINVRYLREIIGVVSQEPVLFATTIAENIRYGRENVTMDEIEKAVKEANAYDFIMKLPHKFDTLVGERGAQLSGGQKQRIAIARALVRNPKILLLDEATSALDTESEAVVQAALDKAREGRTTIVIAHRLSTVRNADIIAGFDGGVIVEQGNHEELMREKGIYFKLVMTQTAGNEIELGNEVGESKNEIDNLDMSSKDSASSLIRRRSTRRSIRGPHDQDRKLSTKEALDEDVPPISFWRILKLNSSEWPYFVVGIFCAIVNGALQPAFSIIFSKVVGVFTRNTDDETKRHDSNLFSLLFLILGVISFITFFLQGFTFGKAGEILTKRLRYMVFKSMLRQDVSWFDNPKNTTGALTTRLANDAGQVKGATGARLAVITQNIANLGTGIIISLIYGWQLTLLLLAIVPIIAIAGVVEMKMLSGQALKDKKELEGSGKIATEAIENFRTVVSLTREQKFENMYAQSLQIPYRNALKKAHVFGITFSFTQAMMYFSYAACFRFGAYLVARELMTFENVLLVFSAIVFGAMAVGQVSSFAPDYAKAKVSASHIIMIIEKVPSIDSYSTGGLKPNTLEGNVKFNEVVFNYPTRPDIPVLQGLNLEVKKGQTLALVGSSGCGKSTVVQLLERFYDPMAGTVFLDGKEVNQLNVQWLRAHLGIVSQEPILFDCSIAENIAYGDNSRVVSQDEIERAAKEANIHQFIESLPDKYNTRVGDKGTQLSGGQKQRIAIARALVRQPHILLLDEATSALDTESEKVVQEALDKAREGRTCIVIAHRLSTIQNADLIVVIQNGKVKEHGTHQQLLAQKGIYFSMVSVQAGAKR
# T7 sequence (P08183 whole entry): as the sequence (P08183 whole entry) above
molecule,measurement,setting,value
B1,effect on calcein uptake / drug efflux activity,[1],substantial increase in fluorescence intensity; also recorded: substantially inhibited drug efflux activity; also recorded: positive dose-response effect
same,Kd,"[2]; listed as A2, read-out: concentration required for 50% of maximal binding (affinity constant)",~150 nM
same,Kd,[2]; read-out: concentration required for 50% of maximal binding (affinity constant),150 nM and ~150 nM
same,binding to streptavidin,streptavidin,did not react
same,reactivity with cells (flow cytometer),[3],no reactivity; also recorded: no effect on fluorescent intensity
same,reactivity with cells (flow cytometer),[4],no reactivity; also recorded: no effect on fluorescent intensity
same,binding to biotinylated non-target peptide,[5],did not react
same,effect on calcein uptake in drug-sensitive cells,KB3-1 cells,did not affect the level of calcein accumulation; also recorded: no effect
same,immuno-histochemical staining of cells,[6],did not stain; also recorded: no antibody-cell reaction
same,immuno-histochemical staining of cells,[7],did not stain; also recorded: no antibody-cell reaction
same,effect on calcein uptake,[8],substantial increases in calcein accumulation; also recorded: substantially higher levels of fluorescence
same,IC50,[9],2600 nM
same,concentration of maximal inhibitory activity,[9],100 µg/mL
same,immuno-histochemical staining of cells,[10],intense in situ staining; also recorded: positive antibody-cell reaction
same,immuno-histochemical staining of cells,[11],intense in situ staining; also recorded: positive antibody-cell reaction
same,Kd,[12],130 nM and ~130 nM
same,effect on calcein uptake in drug-sensitive cells,A8 cells,did not affect the level of calcein accumulation; also recorded: no effect
same,effect on calcein uptake in drug-sensitive cells,2780 cells,did not affect the level of calcein accumulation; also recorded: no effect
same,viability of cells exposed to doxorubicin,2780^ADR cells,effectively reduced the viability of cells; also recorded: substantial loss of viability of cells
same,reactivity with cells (flow cytometer),[13],strong reactivity; also recorded: substantial increase in fluorescent intensity
same,increase in fluorescent intensity,[14],10 fold
same,reactivity with cells (flow cytometer),[14],strong reactivity
